± gives the standard deviation of the averaged measurements.
B1: library; numbered along this chain (parent)
chain: MNIQIGELAKRTACPVVTIRFYEQEGLLPPPGRSRGNFRLYGEEHVERLQFIRHCRSLDMPLSDVRTLLSYRKRPDQDCGEVNMLLDEHIRQVESRIGALLELKHHLVELREACSGARPAQSCGILQGLSDCVCDTRGTTAHPSD

Legend:
[1] = variants of: B1; assay: sfGFP reporter fluorescence (15 h) (µM FITC); higher = higher leak; details: library round: Round 1; ligand: none
Procedure: (§1)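 Cell-free biosensing: 1 µL Echo-assembled CFE reactions with linear PbrR variant templates (5 nM) and pPbrR-sfGFP reporter, with 1 µM Pb, 30 µM Zn or no ligand; endpoint sfGFP fluorescence after 15 h at 30 °C calibrated as µM FITC. Round 1 ML-predicted PbrR mutants; 3 biological replicates.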

[2] = variants of: B1; assay: sfGFP reporter fluorescence (15 h) (µM FITC); higher = stronger transcriptional activation; details: library round: Round 1
Procedure: as §1

Variant: MNIQIGELAKRTACPVVTIRFYEQEGLLPPPGRSRGNFRLYGEEHVERLQFIRHCRSLDMPLSDVRTLLSYRKRPDQDCGEVTMLLDEHIRQVESRIGALLELKHHLVFLREACSGARPAQSCGILQGLSDCVCDTRGTTAHPSD
- sfGFP reporter fluorescence [1]: 0.0638 ± 0.0013
- sfGFP reporter fluorescence ([2]; ligand: 1 µM Pb): 0.0862 ± 0.0036
- sfGFP reporter fluorescence ([2]; ligand: 30 µM Zn): 0.315 ± 0.0065

Variant: MNIQIGELAKRTACPVVTIRFYEQEGLLPPPGRSRGNFRLYGEEHVERLQFIRHCRSLDMPLSDVRTLLSYRKRPDQDCGEVTMLLDEHIRQVRSRIGALLELKHHLVELREACSGARPAQSCGILQGLSDCVCDTRGTTAHPSD
- sfGFP reporter fluorescence [1]: 0.0643 ± 0.0013
- sfGFP reporter fluorescence ([2]; ligand: 1 µM Pb): 0.0792 ± 0.002
- sfGFP reporter fluorescence ([2]; ligand: 30 µM Zn): 0.128 ± 0.0019

Variant: MNIQIGELAKRTACPVVTIRFYEQEGLLPPPGRSRGNFRLYGEEHVERLQFIRHCRSLDMPLSDVRTLLSYRKRPDQDCGEVTMLLDEQIRQVESRIGALLELKHHLVELREACSGARPAQSCGILQGLSDCVCDTRGTTAHPSD
- sfGFP reporter fluorescence [1]: 0.0608 ± 0.0025
- sfGFP reporter fluorescence ([2]; ligand: 1 µM Pb): 0.0955 ± 0.011
- sfGFP reporter fluorescence ([2]; ligand: 30 µM Zn): 0.258 ± 0.013

Variant: MNIQIGELAKRTACPVVTIRFYEQEGLLPPPGRSRGNFRLYGEEHVERLQFIRHCRSLDMPLSDVRTLLSYRKRPDQDCGEVTMLLDEHIRQVESRIGALLELKHHLVELREACSGARPAQSCGILQILSDCVCDTRGTTAHPSD
- sfGFP reporter fluorescence [1]: 0.059 ± 0.00064
- sfGFP reporter fluorescence ([2]; ligand: 1 µM Pb): 0.133 ± 0.011
- sfGFP reporter fluorescence ([2]; ligand: 30 µM Zn): 0.387 ± 0.038

Variant: MNIQIGELAKRTACPVVTIRFYEQEGLLPPPGRSRGNFRLYGEEHVERLQFIRHCRSLDMPLSDVRTLLSYRKRPDQDCGEVTMLLDEHIRQVESRIGALLELKHHLVELRHACSGARPAQSCGILQGLSDCVCDTRGTTAHPSD
- sfGFP reporter fluorescence [1]: 0.0643 ± 0.0027
- sfGFP reporter fluorescence ([2]; ligand: 1 µM Pb): 0.0795 ± 0.0037
- sfGFP reporter fluorescence ([2]; ligand: 30 µM Zn): 0.112 ± 0.0026

Variant: MNIQIGELAKRTACPVVTIRFYEQEGLLPPPGRSRGNFRLYGEEHVERLQFIRHCRSLDMPLSDVRTLLSYRKRPDQDCGEVTMLLDEHIRQVESRIGALLELKHHLVELRMACSGARPAQSCGILQGLSDCVCDTRGTTAHPSD
- sfGFP reporter fluorescence [1]: 0.06267 ± 0.00037
- sfGFP reporter fluorescence ([2]; ligand: 1 µM Pb): 0.0849 ± 0.0046
- sfGFP reporter fluorescence ([2]; ligand: 30 µM Zn): 0.162 ± 0.0094

Variant: MNIQIGELAKRTACPVVTIRFYEQEGLLPPPGRSRGNFRLYGEEHVERLQFIRHCRSLDMPLSDVRTLLSYRKRPDQDCGEVTMLLDEHIRQVESRIGALLELKHHLVELRFACSGARPAQSCGILQGLSDCVCDTRGTTAHPSD
- sfGFP reporter fluorescence [1]: 0.0601 ± 0.0026
- sfGFP reporter fluorescence ([2]; ligand: 1 µM Pb): 0.0667 ± 0.0032
- sfGFP reporter fluorescence ([2]; ligand: 30 µM Zn): 0.0853 ± 0.0022

Variant: MNIQIGELAKRTACPVVTIRFYEQEGLLPPPGRSRGNFRLYGEEHVERLQFIRHCRSLDMPLSDVRTLLSYRKRPDQDCGEVTMLLDEHIRQVESRIGALLELKHHLVELRAACSGARPAQSCGILQGLSDCVCDTRGTTAHPSD
- sfGFP reporter fluorescence [1]: 0.0608 ± 0.0013
- sfGFP reporter fluorescence ([2]; ligand: 1 µM Pb): 0.0855 ± 0.0018
- sfGFP reporter fluorescence ([2]; ligand: 30 µM Zn): 0.194 ± 0.022

Variant: MNIQIGELAKRTACPVVTIRFYEQEGLLPPPGRSRGNFRLYGEEHVERLQFIRHCRSLDMPLSDVRTLLSYRKRPDQDCGEVTMLLDEHIRQVESRIGALLELKHHLVELRLACSGARPAQSCGILQGLSDCVCDTRGTTAHPSD
- sfGFP reporter fluorescence [1]: 0.0619 ± 0.0034
- sfGFP reporter fluorescence ([2]; ligand: 1 µM Pb): 0.0766 ± 0.0039
- sfGFP reporter fluorescence ([2]; ligand: 30 µM Zn): 0.125 ± 0.0069

Variant: MNIQIGELAKRTACPVVTIRFYEQEGLLPPPGRSRGNFRLYGEEHVERLQFIRHCRSLDMPLSDVRTLLSYRKRPDQDCGEVTMLLDEHIRQVESRGGALLELKHHLVELREACSGARPAQSCGILQGLSDCVCDTRGTTAHPSD
- sfGFP reporter fluorescence [1]: 0.06365 ± 0.00056
- sfGFP reporter fluorescence ([2]; ligand: 1 µM Pb): 0.0646 ± 0.0051
- sfGFP reporter fluorescence ([2]; ligand: 30 µM Zn): 0.0965 ± 0.0021

Variant: MNIQIGELAKRTACPVVTIRFYEQEGLLPPPGRSRGNFRLYGEEHVERLQFIRHCRSLDMPLSDVRTLLSYRKRPDQDCGEVTMLLDEHIRQVESRCGALLELKHHLVELREACSGARPAQSCGILQGLSDCVCDTRGTTAHPSD
- sfGFP reporter fluorescence [1]: 0.0623 ± 0.0016
- sfGFP reporter fluorescence ([2]; ligand: 1 µM Pb): 0.063 ± 0.0038
- sfGFP reporter fluorescence ([2]; ligand: 30 µM Zn): 0.109 ± 0.0073

Variant: MNIQIGELAKRTACPVVTIRFYEQEGLLPPPGRSRGNFRLYGEEHVERLQFIRHCRSLDMPLSDVRTLLSYRKRPDQDCGEVTMLLDEHIRQVESRIGALLELKHHLVLLREACSGARPAQSCGILQGLSDCVCDTRGTTAHRSD
- sfGFP reporter fluorescence [1]: 0.0641 ± 0.00073
- sfGFP reporter fluorescence ([2]; ligand: 1 µM Pb): 0.0812 ± 0.0015
- sfGFP reporter fluorescence ([2]; ligand: 30 µM Zn): 0.183 ± 0.0048

Variant: MNIQIGELAKRTACPVVTIRFYEQEGLLPPPGRSRGNFRLYGEEHVERLQFIRHCRSLDMPLSDVRTLLSYRKRPDQDCGEVTMLLDEHSRQVESRIGALLELKHHLVELREACSGARPAQSCGILQGLSDCVCDTRGTTAHPSD
- sfGFP reporter fluorescence [1]: 0.0629 ± 0.0014
- sfGFP reporter fluorescence ([2]; ligand: 1 µM Pb): 0.0715 ± 0.0022
- sfGFP reporter fluorescence ([2]; ligand: 30 µM Zn): 0.109 ± 0.0024

Variant: MNIQIGELAKRTACPVVTIRFYEQEGLLPPPGRSRGNFRLYGEEHVERLQFIRHCRSLDMPLSDVRTLLSYRKRPDQDCGEVTMLLDEHIRQVESRIGALLELKHHLVALREACSGARPAQSCGILQGLSDCVCDTRGTTAHYSD
- sfGFP reporter fluorescence [1]: 0.0646 ± 0.0022
- sfGFP reporter fluorescence ([2]; ligand: 1 µM Pb): 0.0776 ± 0.0092
- sfGFP reporter fluorescence ([2]; ligand: 30 µM Zn): 0.179 ± 0.017

— the supplement of paper PMC12783771
